Paper PMC7169973 (ACS chemical biology, 2020)
Like-named read-outs stand apart in the source and are kept apart here. Where no end group is shown, it is not given here. [ ]: non-standard residue; d: D form. fluorescein = fluorescein label on the N-terminus; pT = C[C@@H](OP(=O)(O)O)[C@H](N)C(=O)O; pS = N[C@@H](COP(=O)(O)O)C(=O)O; FAM = fluorescein

B1: 14-3-3σ, full-length, recombinant (natural protein)
chain: MERASLIQKAKLAEQAERYEDMAAFMKGAVEKGEELSCEERNLLSVAYKNVVGGQRAAWRVLSSIEQKSNEEGSEEKGPEVREYREKVETELQGVCDTVLGLLDSHLIKEAGDAESRVFYLKMKGDYYRYLAEVATGDDKKRIIDSARSAYQEAMDISKKEMPPTNPIRLGLALNFSVFHYEIANSPEEAISLAKTTFDEAMADLHTLSEDSYKDSTLIMQLLRDNLTLWTADNAGEEGGEAPQEPQS

Columns and labels:
[1] = biological target: fluorescein-labeled Nup160-ctp (3) (human); experiment: fluorescence polarisation
[2] = biological target: fluorescein-labeled TNFRSF19-ctp (4) (human); experiment: fluorescence polarisation
[3] = biological target: fluorescein-labeled Nup160-ctp (3) (human); experiment: fluorescence polarisation; remark: listed apart in the source
[4] = biological target: fluorescein-labeled TNFRSF19-ctp (4) (human); experiment: fluorescence polarisation; remark: listed apart in the source
[5] = biological target: T1, 14-3-3σ, full-length, recombinant (human, UniProt P31947 1-248); experiment: ITC
T1 sequence (looked up): B1 chain

[6] = biological target: T1, 14-3-3σ, full-length, recombinant; experiment: ITC; remark: listed apart in the source
[7] = biological target: T1, 14-3-3σ, full-length, recombinant; experiment: fluorescence polarisation
[8] = biological target: T1, 14-3-3σ, full-length, recombinant; experiment: fluorescence polarisation; remark: listed apart in the source
[9] = biological target: T1, 14-3-3σ, full-length, recombinant; experiment: fluorescence polarisation; remark: listed apart in the source
[10] = biological target: T1, 14-3-3σ, full-length, recombinant; experiment: fluorescence polarisation; remark: listed apart in the source

Binder | Kd [7] | Kd [8] | further results
B1 | – | – | Kd [1]: 0.25 µM; Kd [2]: 38 µM; Kd [3]: 5.34 µM; Kd [4]: 538 µM
KYYITGEAEGFPA[pT]V (peptide, UniProt P03372 581-595, looked up) [ERα C-terminal phospholigand (ERα-ctp, 2)] | – | – | Kd [5]: 0.02 µM; Kd [6]: 0.75 µM
{FAM}-KYYITGEAEGFPA[pT]L (peptide, UniProt P03372 581-595, looked up) [N-FAM-2 variant with C-terminal residue L] | 0.17 µM | 11 µM | –
{FAM}-KYYITGEAEGFPA[pT]A (peptide, UniProt P03372 581-595, looked up) [N-FAM-2 variant with C-terminal residue A] | 0.7 µM | 19.9 µM | –
{FAM}-KYYITGEAEGFPA[pT]T (peptide, UniProt P03372 581-595, looked up) [N-FAM-2 variant with C-terminal residue T] | 1.32 µM | 50 µM | –
{FAM}-KYYITGEAEGFPA[pT]S (peptide, UniProt P03372 581-595, looked up) [N-FAM-2 variant with C-terminal residue S] | 3.54 µM | 79.8 µM | –
{FAM}-KYYITGEAEGFPA[pT]N (peptide, UniProt P03372 581-595, looked up) [N-FAM-2 variant with C-terminal residue N] | 32.4 µM | 59.5 µM | –
{FAM}-KYYITGEAEGFPA[pT]G (peptide, UniProt P03372 581-595, looked up) [N-FAM-2 variant with C-terminal residue G] | 36.5 µM | 144 µM | –
{FAM}-KYYITGEAEGFPA[pT]D (peptide, UniProt P03372 581-595, looked up) [N-FAM-2 variant with C-terminal residue D] | 48.2 µM | 173 µM | –
fluorescein-RKKR[pS]V-OH [Task3-ctp, fluorescein-labeled hexaphosphopeptide RKKRpSV-COOH] | – | – | Kd [9]: 3.15 µM; Kd [10]: 0.1 µM
fluorescein-YSGH[pS]L-OH [GpIBα-ctp, fluorescein-labeled hexaphosphopeptide YSGHpSL-COOH] | – | – | Kd [9]: 22.5 µM; Kd [10]: 1.69 µM
fluorescein-KRSV[pS]L-OH [GPR15-ctp, fluorescein-labeled hexaphosphopeptide KRSVpSL-COOH] | – | – | Kd [9]: 7.36 µM; Kd [10]: 1.1 µM
fluorescein-ARSW[pT]F-OH [IRL9-ctp, fluorescein-labeled hexaphosphopeptide ARSWpTF-COOH] | – | – | Kd [9]: 3.16 µM; Kd [10]: 1.54 µM
{FAM}-KYYITGEAEGFPA[pT]I (peptide, UniProt P03372 581-595, looked up) [N-FAM-2 variant with C-terminal residue I] | 0.06 µM | 3.03 µM | –
fluorescein-ALRRQ[pT]-OH [p27Kip1-ctp, fluorescein-labeled hexaphosphopeptide ALRRQpT-COOH] | – | – | Kd [9]: 82.2 µM; Kd [10]: 39.9 µM
{FAM}-KYYITGEAEGFPA[pT]V (peptide, UniProt P03372 581-595, looked up) [fluorescein-labeled N-FAM-ERα-ctp (N-FAM-2)] | 0.05 µM | 3.61 µM | –
{FAM}-KYYITGEAEGFPA[pT]F (peptide, UniProt P03372 581-595, looked up) [N-FAM-2 variant with C-terminal residue F] | 4.03 µM | 10.5 µM | –
